Columns and labels:
Test in all cases: cell-based or functional assay
[1] = target: CD19 on GFP/Luc+ Raji cells (human) (UniProt P15391)
[2] = target: BCMA on H929 myeloma cells (human) (UniProt Q02223)
[3] = target: truncated BCMA (amino acid 1 to 98) on SKOV3 cells (human) (UniProt Q02223)
[4] = target: truncated CD19 (amino acid 1 to 342) on SKOV3 cells (human) (UniProt P15391)
Chain of truncated CD19 (amino acid 1 to 342) on SKOV3 cells (human) (P15391 20-342 limits assumed, form in doubt): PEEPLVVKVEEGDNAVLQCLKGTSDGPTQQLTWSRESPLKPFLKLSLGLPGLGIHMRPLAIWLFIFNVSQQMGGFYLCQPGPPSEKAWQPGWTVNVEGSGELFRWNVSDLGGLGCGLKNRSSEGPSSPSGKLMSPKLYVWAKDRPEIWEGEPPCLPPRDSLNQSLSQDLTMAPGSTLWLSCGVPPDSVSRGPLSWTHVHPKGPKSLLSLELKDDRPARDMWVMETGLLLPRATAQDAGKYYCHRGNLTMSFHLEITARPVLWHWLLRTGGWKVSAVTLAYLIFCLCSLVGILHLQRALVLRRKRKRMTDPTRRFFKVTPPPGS

Chain of BCMA on H929 myeloma cells (human) (Q02223 whole entry, the tested form may be a part): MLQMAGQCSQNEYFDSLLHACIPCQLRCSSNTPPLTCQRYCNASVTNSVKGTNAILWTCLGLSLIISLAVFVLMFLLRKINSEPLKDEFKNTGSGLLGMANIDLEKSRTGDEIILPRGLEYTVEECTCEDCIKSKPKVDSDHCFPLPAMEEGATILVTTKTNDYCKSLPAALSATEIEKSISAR
Chain of CD19 on GFP/Luc+ Raji cells (human) (P15391 20-556): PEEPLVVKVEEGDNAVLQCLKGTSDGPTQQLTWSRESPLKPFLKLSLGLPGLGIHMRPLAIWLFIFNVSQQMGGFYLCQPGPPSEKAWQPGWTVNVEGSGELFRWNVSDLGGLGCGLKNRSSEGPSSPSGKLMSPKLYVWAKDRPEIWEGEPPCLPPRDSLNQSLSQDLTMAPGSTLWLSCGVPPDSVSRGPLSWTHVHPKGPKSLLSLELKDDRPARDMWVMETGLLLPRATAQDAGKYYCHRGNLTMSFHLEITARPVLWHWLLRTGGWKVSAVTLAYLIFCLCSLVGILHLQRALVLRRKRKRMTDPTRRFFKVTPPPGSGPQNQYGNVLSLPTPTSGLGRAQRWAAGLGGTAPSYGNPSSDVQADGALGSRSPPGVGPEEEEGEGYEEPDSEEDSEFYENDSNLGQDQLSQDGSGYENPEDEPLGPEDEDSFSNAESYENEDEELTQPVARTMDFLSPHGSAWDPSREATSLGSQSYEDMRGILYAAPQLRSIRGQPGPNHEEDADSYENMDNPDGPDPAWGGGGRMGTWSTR
Chain of truncated BCMA (amino acid 1 to 98) on SKOV3 cells (human) (Q02223 1-98 limits assumed): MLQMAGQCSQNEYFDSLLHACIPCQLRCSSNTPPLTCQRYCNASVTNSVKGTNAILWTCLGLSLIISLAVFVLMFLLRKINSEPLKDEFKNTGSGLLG

Substance | Specific cell lysis ratio (at E:T = 3:1), luciferase killing assay [1] | cytotoxicity, flow cytometry with counting beads, E:T 0.1:1, 24 hours [2] | cytotoxicity, flow cytometry with counting beads, E:T 0.3:1 and 1:1, 24 hours [2] | cytotoxicity, real-time cytotoxicity assay (xCELLigence), E:T 0.3:1 and 0.1:1, after 36 hours of co-culture [3] | cytotoxicity, real-time cytotoxicity assay (xCELLigence), E:T 0.1:1 (fold against Comparative Example 1C) [4]
anti-CD19-NKp30 chimeric antigen receptor of Example 1-4 (FMC63 scFv, hinge domain of IgG4, NKp30 without immunoglobulin-like domain), on CAR-T cells of Example 1-4C (from UniProt O14931 129-201; P30273 19-86) | 51% | – | – | – | –
anti-BCMA chimeric antigen receptor of Comparative Example 3 (J6M0 scFv, hinge domain of CD8, transmembrane domain of CD8, 4-1BB, signal transduction domain of CD3ζ), on CAR-T cells of Comparative Example 3C (from UniProt P01732 183-206; Q07011 214-255; P20963 52-164) | – | 74.8% | – | – | –
anti-BCMA-NKp30 chimeric antigen receptor of Example 3 (J6M0 scFv, hinge domain of CD28, NKp30 without immunoglobulin-like domain), on CAR-T cells of Example 3C (from UniProt O14931 129-201; P30273 19-86) | – | 73.5% | 80 to 85% | 100% | –
anti-CD19-NKp30 chimeric antigen receptor of Example 1-5 (FMC63 scFv, (EAAAK)3 hinge, NKp30 without immunoglobulin-like domain), on CAR-T cells of Example 1-5C (from UniProt O14931 129-201; P30273 19-86) | 83.6% | – | – | – | > 3

Source: patent US20250108114A1
